assay: yeast display, Sf9 membrane polyspecificity reagent, FACS + sequencing; frameworks hold sequencing errors
Summary of the method: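 Genes from sorted yeast were amplified by colony PCR, read by MiSeq 2 × 250 sequencing and filtered on CDR length. These cells carried a synthetic nanobody library in Saccharomyces cerevisiae BJ5465 and were sorted by FACS into low and high (top ~1%) gates on anti-HA and streptavidin fluorescence. Polyreactivity is labelled according to the gate of origin.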

Sequence | polyreactivity (PSR sort gate)
QDQLVDSGGGLVQAGGSLRLSCAASGYIFDRYAMGWYRQEPGKERELVAAISGRGGSTYYADSVKGRFTISRDNAKNTVYLQMYSLKREDTAVYYCARDVYVRNGQRARFDSWGQGTQVTVSS | high polyreactivity
QDQLVDSGGGLVQAGGSLSLSCAASGISFYGNAMAWYRPAPGKERELVAAITSGGSTNYADSVKGRFTISRDNAKNTVYLQLYSLKPEDTAVYYCAVSYVSTLRRSRYDYWGQGTQVTVSS | low polyreactivity
QDQLVDSGGVLVQAGGSLRLTCAASGSTFARNAMGWYRQAPGKERELVAAISSGGTTNYADSVKARFTISRDNAKNTVYLQMNSLKPEDTAVYYCNAGFRNVLTSGYLYDYWGQGTQVTVSS | low polyreactivity
QDQLVEERGGLVQAGGSLRLSCAASGITFSTNAMGWYRQAPGKERELVAAITSVTSTYYADSVKGRFTISRDYAKNSVYLQMNSLKTEDTAVLYCAASLSRWPYFYEYNYWGQGTQVTVSS | low polyreactivity
QDQLVESAGGLVQAGGSLRLSCAASARIFRYNAIGCYRQGPGKERVLVASITSAGSTNYADSVKGRFTISRDNAKNTVYLQMNSLKPEDTAVYYCNKRRAYGYYLFDYWGLGTQVTVSS | high polyreactivity
QDQLVESAGGLVQAGGSLRLSCAASASTFIVYAMGWYRQAPGKEREFVATINHSGDSTYYADSVKGRFTISRDNAKNTVYLQMNSLKPEDTAVYYCNATVVFVQYVDYDYWGQGTLVTVSS | low polyreactivity
QDQLVESAGGLVQAGGSLRLSCAASGRIFKSYAMGWYRQAPGKERELVASTSYTGGSTYYADSVKGRFTISRDNAKNTVYIQRNSLKPDETAVYYCAPKRVRSAGSYGYWGQGTQVTVSS | low polyreactivity
QDQLVESAGGLVQAGGSLRLSCAASGRTFVTNTMGWSRQAPGKERELVAAISSRGGTTYYADSVKGRFTISRDNAKNTVYLQMNSLKPEDTAVYYCNTGTRAIQRDGFEYWGQGTQVTVSS | low polyreactivity
QDQLVESAGGLVQAGGSLRLSCAATGLNLVPNTMGLYRQAPGKETQLVAAISYSGGGTYYADSVKGRFTISRDNAKNTVYLQMNSLKPEDTAVYYCAAYVKREYAPYGYWGQGTQVTVSS | low polyreactivity
QDQLVESGAGLVQAGGSLRLSCAASGSTFGIYAMGWSRQAPGKEREFVAAISRSGSSTYYADSVKGRFTISRDNAKNTVYLQMNSLKPEDTAVYYCAAVVRYSQAGYYYWGQGTHVTVSS | high polyreactivity
QDQLVESGGALVQPGGSLRLSCAASGRLLGRYAMGWYRQAPGKDRELVATITSGDDTNYADSVKGRFTISRDNAKNTVYLQMNSLKPEDTAVGYWGQGTQVTVSS | low polyreactivity
QDQLVESGGCLVQAGGSLRLRCAASGRTFEAYAKGGYRQAPGKERELVASISSGGSTYYADSVNGRFTISRDNAKNTVYLQMNSLKPEDTAVYYCAAKRATRYYFAYYRARSERMNYWGQGTQVTVSS | high polyreactivity
QDQLVESGGCLVQAGGSLRLSCAASGSIFKTYAMGWYRQAPGKERELVAAISWRGGSTYYADSVKGRFTISRDNAKNTVYLQMISLKPEDTAVYYCAAGRKFGTRTLWYRYGYWGQGTQVTVSS | high polyreactivity
QDQLVESGGGFVQAGGSLRLSCAASGFIFVTYAMGWFRQAPGKERELVAAITWSTTSTYYADSVKGRFTISRDNAKNTVYLQMNSLKPDETAVYSCAKYYFQYKHDYWGQGTQVTVSS | low polyreactivity
QDQLVESGGGFVQAGGSLRLSCEASGSIFNYYAMGCSRQAPGKERELVAAITTSGGNTYYADSVKGRFTISRDNAKNTVYLQMNSLKPEDTAVYYCAADYWASGGEYDYWGQGTQVTVSS | low polyreactivity
QDQLVESGGGFVQAGGSRRLSCAASGRTLAYNAMGWYRPAPGKEWEFVAAITYSGGSTYYADSVKGRFTISRDNAKNTVYLQMYSLKPEDTAVYYCNAKRKRGYGSKFDYWGQGTQVTVSS | high polyreactivity
QDQLVESGGGIVQAGGSLRLSCAASGRTFGINAMGWSRQAPGKERELVAVISCGDGGTYYADSVKWRFTISRDNAKNTVYLQMKSLKPEDTAVYYCSSEYQSTSLWGGHFVINPYDYWGQATQVTVSS | low polyreactivity
QDQLVESGGGLDHAGGSIRLSCAASGFISKYYAMGWYTQAPGKERELVASISRDGSTSYADTVKGRFTNTRDNAKNPVYLQMNSLKPEDTAVYYCNAGYNWYPLFDYWGQGTQVTVSS | high polyreactivity
QDQLVESGGGLDQAGGRLRLSCAASGSIFGVYAMGWYRQAPGKERELVASITWSSGSTNYADSVKGRFTISRDNAKNTVYLQMNSLKPEDTAVYYCNRVYARSQRVVTKFHYDYWGQGTQVTVSS | low polyreactivity
QDQLVESGGGLDQAGGSLRLSCAASGFTFYNYAMGWYRQAPGKERELVAAISWNGGSTYYADSVKGRFTISRDNAKNTVYLQMNSLKPEDTAVYYCNADISQRTRGYYYVWWSRMDYWGQGTQVTVSS | low polyreactivity
QDQLVESGGGLDQAGGSLRLSCAASGRTFLWNAMGWYRQAPGKERELVARINLSGGRTYYADSVKGRFTISRDNAKNTVYLQMNSLKPDDTAVYYCAATVVRYRRDSWGQGTQVTVSS | low polyreactivity
QDQLVESGGGLDQAGGSLRLSCAATGGIIRQNVMGWYRQPPGKERELVAAISRRGVITYYADSVKGRFTISRDNAKNTVYLQMNSLKPDDTAVYYCNYKPTWDYSYWGQGTQLTVSS | high polyreactivity

Sequence | polyreactivity (PSR sort gate)
QDQLVESGGGLDQARGSLRLSCAACGSTFPRYAMGWSRQAPGKERELVAAITASGGSTYYADSVKGRFTISRDNAKNPVYLQMNSLKPEDTAVYYCATPSLYTGYDYWGQGTQVTVSS | low polyreactivity
QDQLVESGGGLFQAGGSLRLICAASGFIFSSYDMGWDRQAPGKERELVAAITTVGSRIYADSVKGRFTISRDNAKNTVDLQMNCLKPEDSAVYVCATVPGGSWLVLWWSTGGDDEYWGHGTQVTVSS | low polyreactivity
QDQLVESGGGLFQAGGSLRLSCAASGFTFVDYTMGWYRQEPGKEREFVAAISSSGGSTYYADSVKGRITISRDYAKNTVYFQMNSLKPEDTAVYYCKADAINKRGGRDYWGQGTQVTVSS | high polyreactivity
QDQLVESGGGLFQAGGSLRLSCSASGSIFQYYTMGWYRQAPGKERELVAAIKSGGRTNYADSVKGRFTISRDNAKNTVYLQMNSLKPEDTAVYYCAKRLSTRASFGEEDSWGQGTQVTVSS | low polyreactivity
QDQLVESGGGLLQAGGSLRLSCAASGLTFSDYAMGWYRQAPGKEREFVAAITRNGGSTRYADSVKGRFTISRDNAKNTVYVQMNSVKPEDTAVFYCHKVSFVYSRSKGFYYTYLKFEYWGQGTQVTVSS | low polyreactivity
QDQLVESGGGLLQAGGSLRLSCAASGSTIGYYAMGWYRQAPGKERELVAAINSGDSTSYADSVKGRFTISRDNAKNTVYLQMNSLKPEDTAVYYCAVRPRRHQYGYWGQGTQVTVSS | low polyreactivity
QDQLVESGGGLVHAGGSLRLSCAASVSTFTRYDMGRYRQAPGKERELVDAISWSGGRTHYADSVKGRFTISRENAKNTVYLQMNSLKPEDTAVYYCNTLYDYWYDYWGQGSQVTVSS | low polyreactivity
QDQLVESGGGLVQAGASLRLSCAASGITFNVYAMGWYRQAPGKEREFVAAISYNGGRTYYADSVKGRFTISRDNAKNTVYLQMNSLKPEDTAVYYCAAQWAWGPYDYWGQGTQVTVSS | high polyreactivity
QDQLVESGGGLVQAGCSLLLSCAASGRIFAKNAMVCYRQAPGKERELVATSSWSGSSTRYADSVKGRFTISRDYAKNSVYLQMNSLKPEDTAVYYCAARPTPRRTPYTATYDYWGQGTQVTVSS | high polyreactivity
QDQLVESGGGLVQAGGCLRLSCAASGSIFIPYAMGSYRQAPGKERELVAAISLGDGNTYYADSVKGRFTISRDNAKYTVYLQMNSLKPEDTAVYYCNAVPRKFGDEYWGQGTQVTVSS | low polyreactivity
QDQLVESGGGLVQAGGGLRLSCAASVRTFSKYTMGWYRQAPGKERELVAAISYSGGSTYYADSVKGRFTISRDNAKNTVYLQMNSLKPEDTAVYYCAARASTYKYYYWGQGTQVTVSS | high polyreactivity
QDQLVESGGGLVQAGGILRLSCAASGSTFFHYAMGWYRQAPGQEREFVAANDSNGGSTYYADSVKGRFSISRDNAKNTVYLQMTCLKPEETAVNYCAADDLAEFEYDYWGQGTQVTVSS | low polyreactivity
QDQLVESGGGLVQAGGILSLSCAASGSTFSYYAMGWYRQAPGTETELVAAISSRGGSTYYADSVKGRFTISRDNAKNPVYLQMNSLNPEDTAVDYCNADHKFRSSVSGDHDYWGQGTQVTVSS | high polyreactivity
QDQLVESGGGLVQAGGRLRLSCAASGFIFYSYVMGRYRQAPGKERELVASIRSRGGSTYYADSVKGRFTISRDNAKNTVYLQMNSLKPEDTAVYYCAADLYLSPSWYKYDYWGQGTQVTVSS | low polyreactivity
QDQLVESGGGLVQAGGSHRLSCAASGFISDKNAMGWYRQAPRKERELVAAISQRGDRTYYADSVKGRFTISRDNAKNTVYLQMNSLKPEDTAVYYCGYLVRYHHLRYWGQGTQVTVSS | high polyreactivity
QDQLVESGGGLVQAGGSHRLSCAASGSTFLGNTMGWYRQAPRKERELVAAISSSGTSTYYADSVKGRFTISRDNAKNTVYLQMNSLKPEDTAVYYCAAVIRVWWGFGDKYDYWGQGTQVTVAS | high polyreactivity
QDQLVESGGGLVQAGGSHRLTCAATGITLDNYVMGWYRQAPRTERELVAAISRTSGRTYYADSVKGRFTISRDNAKNTVYLQMHSLKPEDTGVYYCNARSRGRASGYDYWGHGTQVTVSS | high polyreactivity
QDQLVESGGGLVQAGGSIRLSCAASGGIFESYAMGWYRQAPGKEREMVASISSGGSTYYADSVKGRFTISRDNAKNTVYLQMNSLKPEDTAVYYCNKDYRSVYKGRGFDYWGQGTQVTVSS | low polyreactivity
QDQLVESGGGLVQAGGSLGLSCAASGSIFGFYDMGWSRQAPGKERELVAAITSGDSTHYADSVKGRFTISRDNAQNTVYVQMNSLKPVDTAVYYCAASAPYRYYRSAYYSWGQGTQVTVSS | low polyreactivity
QDQLVESGGGLVQAGGSLRLICAASARTFSHYPLGWYRQAAGKERELVATITRNGRITYYADSVKGRFTISRDNAKYTVYFQMNSLKPEDTAVYYFNKRWGGPIQFDYWGPGTQVTVSS | low polyreactivity
QDQLVESGGGLVQAGGSLRLICSASGIILGSNAMGWYRQAPGKERELVAAITSSGSTYYADSVKGRFTISRDNAKNTVYIQMNSLKPEDTAVYYCATGWLRRAVRFNYWGQGTQVTLSS | high polyreactivity

From the nanobody polyreactivity screen of Harvey et al. (2022)
